Test results published in publication PMC12439145, “Aptamer-based drug delivery for targeted therapy of imatinib-resistant gastrointestinal stromal tumor”.

B1: KIT-w (ssDNA)
DNA: GAGGCATACCAGCTTATTCAAGGGGCCGGGGCAAGGGGGGGGTACCGTGGTAGGACATAGTAAGTGCAATCTGCGAA
B2: KIT-d (ssDNA)
DNA: ATTCAAGGGGCCGGGGCAAGGGGGGGGTACCGTGGTAGGACATAGT

What was measured:
[1] = target: T1, KIT (recombinant, YEASEN 93764ES80) (UniProt P10721 26-524); test: SPR; KIT immobilized on CM5 chip; SPR at 25 C, His-KIT on CM5 chip, 50 mM NaOH regeneration; flow cytometry with 250 nM Cy5-aptamer in binding buffer with 1 mg/ml BSA and 1 mM yeast tRNA; salt and pH not given in material; conditions: protein: commercial; tags: His-tag; label: Cy5 in flow cytometry; predicted stem-loop
[2] = target: T1, KIT (recombinant, YEASEN 93764ES80); test: flow cytometry; KIT coated on aldehyde/sulfate latex beads; SPR at 25 C, His-KIT on CM5 chip, 50 mM NaOH regeneration; flow cytometry with 250 nM Cy5-aptamer in binding buffer with 1 mg/ml BSA and 1 mM yeast tRNA; salt and pH not given in material; conditions: protein: commercial; tags: His-tag; label: Cy5 in flow cytometry; predicted stem-loop

T1 sequence (P10721 26-524): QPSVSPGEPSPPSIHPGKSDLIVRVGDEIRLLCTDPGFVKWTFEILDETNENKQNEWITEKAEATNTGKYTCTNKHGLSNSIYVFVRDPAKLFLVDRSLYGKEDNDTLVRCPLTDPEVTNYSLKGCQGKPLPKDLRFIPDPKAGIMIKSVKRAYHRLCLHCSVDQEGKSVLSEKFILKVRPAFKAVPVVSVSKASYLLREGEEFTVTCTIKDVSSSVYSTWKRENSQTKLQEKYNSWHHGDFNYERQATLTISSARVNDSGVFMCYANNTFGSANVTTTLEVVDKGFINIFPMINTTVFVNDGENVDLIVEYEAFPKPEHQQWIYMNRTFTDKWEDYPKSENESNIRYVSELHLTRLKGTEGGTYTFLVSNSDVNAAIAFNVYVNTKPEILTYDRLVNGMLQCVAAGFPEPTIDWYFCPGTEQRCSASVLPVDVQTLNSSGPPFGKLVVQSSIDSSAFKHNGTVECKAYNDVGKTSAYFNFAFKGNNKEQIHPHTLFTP

| Binder | Kd [1] | Kd [2] |
| --- | --- | --- |
| B1 | 84 nM | 106 nM |
| B2 | 71.1 nM | 80.2 nM |
